± gives the standard deviation of the averaged measurements.
Legend:
[1] = tested on: Saccharomyces cerevisiae; assay: protein stability index of tFT-peptide fusion (C-terminal peptide) (PSI (0-1 scale)); higher = more stable (slower turnover); settings: genetic background: wild type; temperature: 30 C
[2] = tested on: Saccharomyces cerevisiae; assay: as above
Experimental: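 MPS profiling in S. cerevisiae of the tFT-X12 degron library: putative degron peptides plus stable controls, 12 aa, fused to the C-terminus of a sfGFP-mCherry timer. Cells are FACS-sorted into 8 mCherry/sfGFP bins and deep-sequenced. PSI runs from 0 (unstable) to 1 (stable). Backgrounds are wild type, das1Δ and doa10Δ at 30 °C, and wild type, das1Δ, cdc34-1 and cdc53-1 at 37 °C; 2-3 technical replicates each.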

[3] = genetic background: cdc34-1, temperature: 37 C
[4] = genetic background: cdc53-1, temperature: 37 C
[5] = genetic background: das1 deletion, temperature: 30 C
[6] = genetic background: das1 deletion, temperature: 37 C
[7] = genetic background: doa10 deletion, temperature: 30 C
[8] = genetic background: wild type, temperature: 30 C
[9] = genetic background: wild type, temperature: 37 C
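Note: PSI is a weighted mean of sequencing reads over stability bins, variants kept only with over 10 reads, mCherry proximal and sfGFP distal, peptide attached via GGGS linker.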

| Sequence | protein stability index [1] | protein stability index [2, 3] | protein stability index [2, 4] | protein stability index [2, 5] | protein stability index [2, 6] | protein stability index [2, 7] | protein stability index [2, 8] | protein stability index [2, 9] |
| --- | --- | --- | --- | --- | --- | --- | --- | --- |
| GLLGRCPVVVFG | 0.378 ± 0.061 | 0.385 ± 0.041 | 0.397 ± 0.013 | 0.273 ± 0.04 | 0.49774 ± 0.00049 | 0.216 ± 0.013 | 0.285 ± 0.026 | 0.463 ± 0.0047 |
| GLRFFVSSLLCR | 0.508 ± 0.058 | 0.502 ± 0.039 | 0.54807 ± 0.0003 | 0.389 ± 0.036 | 0.5651 ± 0.0036 | 0.377 ± 0.0095 | 0.388 ± 0.02 | 0.555 ± 0.021 |
| GLVCPWLIVRFV | 0.2 ± 0.015 | 0.303 ± 0.051 | 0.3 ± 0.065 | 0.372 ± 0.036 | 0.5 ± 0.0067 | 0.161 ± 0.022 | 0.136 ± 0.0078 | 0.216 ± 0.03 |
| GLVWSKCFFIVG | 0.407 ± 0.033 | 0.637 ± 0.041 | 0.705 ± 0.016 | 0.547 ± 0.014 | 0.7105 ± 0.0018 | 0.2675 ± 0.0018 | 0.295 ± 0.022 | 0.528 ± 0.018 |
| GLWLRVCIVAWV | 0.14 ± 0.0097 | 0.0407 ± 0.01 | 0.122 ± 0.017 | 0.0686 ± 0.031 | 0.19 ± 0.0034 | 0.0424 ± 0.011 | 0.0551 ± 0.013 | 0.144 ± 0.0033 |
| GLYLVFMGFVPC | 0.47 ± 0.029 | 0.471 ± 0.019 | 0.52714 ± 4.2e-05 | 0.33 ± 0.053 | 0.575 ± 0.032 | 0.3169 ± 0.0022 | 0.325 ± 0.034 | 0.505 ± 0.0082 |
| GNIHHTRFLALL | 0.458 ± 0.0074 | 0.838 ± 0.04 | 0.859 ± 0.012 | 0.7472 ± 0.0026 | 0.835 ± 0.012 | 0.485 ± 0.017 | 0.498 ± 0.013 | 0.693 ± 0.024 |
| GNSAGSVGGGRF | 0.705 ± 0.038 | 0.695 ± 0.022 | 0.738 ± 0.02 | 0.627 ± 0.012 | 0.7387 ± 0.0012 | 0.638 ± 0.024 | 0.652 ± 0.014 | 0.7254 ± 0.0028 |
| GPILVWVMADWG | 0.447 ± 0.041 | 0.43 ± 0.036 | 0.506 ± 0.028 | 0.328 ± 0.036 | 0.5493 ± 0.00096 | 0.293 ± 0.0078 | 0.337 ± 0.018 | 0.518 ± 0.012 |
| GPVRTEFWLYVW | 0.553 ± 0.18 | 0.651 ± 0.014 | 0.704 ± 0.022 | 0.55 ± 0.041 | 0.655 ± 0.011 | 0.57 ± 0.031 | 0.583 ± 0.049 | 0.626 ± 0.0066 |
| GQRIKWGPIYLT | 0.249 ± 0.019 | 0.352 ± 0.079 | 0.336 ± 0.0081 | 0.366 ± 0.028 | 0.444 ± 0.013 | 0.397 ± 0.034 | 0.22 ± 0.027 | 0.365 ± 0.052 |
| GREGETGSKAGR | 0.552 ± 0.17 | 0.675 ± 0.008 | 0.708 ± 0.013 | 0.64 ± 0.024 | 0.7282 ± 0.003 | 0.64 ± 0.027 | 0.669 ± 0.021 | 0.717 ± 0.015 |
| GRGGLRVVVWLV | 0.189 ± 0.011 | 0.518 ± 0.069 | 0.642 ± 0.016 | 0.496 ± 0.024 | 0.6652 ± 0.0041 | 0.11 ± 0.017 | 0.123 ± 0.022 | 0.143 ± 0.0029 |
| GRGLGHWWTVRT | 0.751 ± 0.033 | 0.672 ± 0.03 | 0.756 ± 0.024 | 0.698 ± 0.017 | 0.741 ± 0.015 | 0.689 ± 0.013 | 0.704 ± 0.0092 | 0.716 ± 0.012 |
| GRVAIFTLLWRI | 0.314 ± 0.12 | 0.199 ± 0.066 | 0.105 ± 0.041 | 0.256 ± 0.063 | 0.362 ± 0.01 | 0.469 ± 0.052 | 0.252 ± 0.032 | 0.29 ± 0.012 |
| GSLHWVMVFAVP | 0.489 ± 0.042 | 0.604 ± 0.037 | 0.6404 ± 0.0044 | 0.491 ± 0.025 | 0.6582 ± 0.0047 | 0.493 ± 0.033 | 0.487 ± 0.016 | 0.607 ± 0.03 |
| GSVCVVCWELVV | 0.378 ± 0.04 | 0.4883 ± 0.0024 | 0.583 ± 0.0091 | 0.344 ± 0.029 | 0.5561 ± 0.0013 | 0.26 ± 0.0046 | 0.293 ± 0.017 | 0.4792 ± 0.0027 |
| GSVGFICCVVVV | 0.412 ± 0.0011 | 0.29 ± 0.022 | 0.4314 ± 0.0042 | 0.332 ± 0.03 | 0.515 ± 0.0078 | 0.268 ± 0.017 | 0.298 ± 0.031 | 0.4546 ± 0.0022 |
| GTETWVFVLLKF | 0.218 ± 0.031 | 0.102 ± 0.021 | 0.0712 ± 0.011 | 0.169 ± 0.036 | 0.224 ± 0.019 | 0.302 ± 0.026 | 0.165 ± 0.013 | 0.179 ± 0.011 |
| GVFFHFFFLFCF | 0.43 ± 0.013 | 0.332 ± 0.025 | 0.352 ± 0.01 | 0.324 ± 0.018 | 0.447 ± 0.0093 | 0.3913 ± 0.0038 | 0.297 ± 0.028 | 0.413 ± 0.0047 |

| Sequence | protein stability index [1] | protein stability index [2, 3] | protein stability index [2, 4] | protein stability index [2, 5] | protein stability index [2, 6] | protein stability index [2, 7] | protein stability index [2, 8] | protein stability index [2, 9] |
| --- | --- | --- | --- | --- | --- | --- | --- | --- |
| GVSRRWFSLRCI | 0.214 ± 0.0074 | 0.627 ± 0.039 | 0.717 ± 0.015 | 0.612 ± 0.029 | 0.75 ± 0.013 | 0.125 ± 0.009 | 0.15 ± 0.011 | 0.2424 ± 0.0022 |
| GVVCCVVVGRMG | 0.503 ± 0.053 | 0.619 ± 0.024 | 0.659 ± 0.024 | 0.474 ± 0.024 | 0.665 ± 0.018 | 0.445 ± 0.032 | 0.451 ± 0.013 | 0.63558 ± 6.8e-05 |
| GVVRKLCHWVVA | 0.426 ± 0.04 | 0.476 ± 0.0049 | 0.516 ± 0.031 | 0.362 ± 0.027 | 0.525 ± 0.0015 | 0.286 ± 0.0046 | 0.322 ± 0.016 | 0.469 ± 0.013 |
| GWVQFVKAAVLF | 0.36 ± 0.053 | 0.655 ± 0.063 | 0.7587 ± 0.0019 | 0.59 ± 0.031 | 0.73964 ± 3.5e-06 | 0.197 ± 0.0058 | 0.211 ± 0.043 | 0.4443 ± 0.0032 |
| GYACSIFYLRCV | 0.377 ± 0.014 | 0.535 ± 0.037 | 0.5771 ± 6.4e-05 | 0.496 ± 0.03 | 0.6266 ± 0.00063 | 0.218 ± 0.0038 | 0.23 ± 0.021 | 0.444 ± 0.016 |
| GYRFSILSILRV | 0.482 ± 0.025 | 0.581 ± 0.031 | 0.611 ± 0.014 | 0.513 ± 0.024 | 0.627 ± 0.012 | 0.488 ± 0.017 | 0.47 ± 0.023 | 0.612 ± 0.016 |
| HANPGTFGPCTR | 0.696 ± 0.048 | 0.654 ± 0.019 | 0.7204 ± 0.006 | 0.645 ± 0.012 | 0.72 ± 0.0081 | 0.658 ± 0.019 | 0.6499 ± 0.0061 | 0.683 ± 0.017 |
| HGVYSVLRFFFC | 0.453 ± 0.0086 | 0.664 ± 0.038 | 0.723 ± 0.021 | 0.659 ± 0.011 | 0.671 ± 0.03 | 0.329 ± 0.0035 | 0.365 ± 0.017 | 0.579 ± 0.023 |
| HINRTIWARYQV | 0.362 ± 0.071 | 0.648 ± 0.069 | 0.742 ± 0.009 | 0.643 ± 0.033 | 0.75 ± 0.021 | 0.156 ± 0.019 | 0.174 ± 0.034 | 0.429 ± 0.032 |
| HLGNTMIKKLIG | 0.516 ± 0.023 | 0.695 ± 0.049 | 0.722 ± 0.046 | 0.621 ± 0.012 | 0.728 ± 0.035 | 0.405 ± 0.033 | 0.459 ± 0.064 | 0.6202 ± 0.0029 |
| HLYPFPSLHFAF | 0.799 ± 0.1 | 0.74 ± 0.043 | 0.791 ± 0.012 | 0.681 ± 0.013 | 0.778 ± 0.026 | 0.683 ± 0.025 | 0.688 ± 0.015 | 0.753 ± 0.019 |
| HNQDKNVKYKIG | 0.41 ± 0.037 | 0.672 ± 0.023 | 0.733 ± 0.034 | 0.625 ± 0.032 | 0.705 ± 0.021 | 0.248 ± 0.006 | 0.33 ± 0.039 | 0.536 ± 0.0064 |
| HRDVISVVRNMS | 0.43 ± 0.027 | 0.625 ± 0.016 | 0.70886 ± 0.00045 | 0.659 ± 0.058 | 0.715 ± 0.019 | 0.246 ± 0.022 | 0.333 ± 0.022 | 0.576 ± 0.012 |
| HRHCVSSYQKVS | 0.401 ± 0.054 | 0.662 ± 0.08 | 0.708 ± 0.013 | 0.648 ± 0.028 | 0.715 ± 0.0042 | 0.242 ± 0.0074 | 0.285 ± 0.027 | 0.556 ± 0.01 |
| HRNILSIIIKNL | 0.109 ± 0.046 | 0.541 ± 0.083 | 0.681 ± 0.027 | 0.642 ± 0.057 | 0.685 ± 0.029 | 0.0819 ± 0.039 | 0.0771 ± 0.015 | 0.1025 ± 0.00088 |
| ICTHPCLRLRLN | 0.165 ± 0.0032 | 0.517 ± 0.039 | 0.662 ± 0.028 | 0.634 ± 0.012 | 0.732 ± 0.019 | 0.0875 ± 0.018 | 0.0887 ± 0.016 | 0.144 ± 0.055 |
| IDLISRVTVVAR | 0.4 ± 0.0047 | 0.394 ± 0.02 | 0.4267 ± 0.0012 | 0.268 ± 0.036 | 0.464 ± 0.0081 | 0.2236 ± 0.0022 | 0.288 ± 0.029 | 0.441 ± 0.01 |
| IDLVAFCTIFAL | 0.3975 ± 0.0032 | 0.4606 ± 0.0013 | 0.494 ± 0.032 | 0.363 ± 0.03 | 0.516 ± 0.01 | 0.295 ± 0.0078 | 0.33 ± 0.02 | 0.469 ± 0.018 |
| IERGLMLTLCVH | 0.22 ± 0.014 | 0.0536 ± 0.009 | 0.0716 ± 0.028 | 0.172 ± 0.027 | 0.205 ± 0.0033 | 0.115 ± 0.013 | 0.156 ± 0.024 | 0.171 ± 0.0059 |
